Assay results from paper PMC12269619 (2025).
Ends that are not written are not given here.

T1: Biotinylated junctional peptide NPDP19 (Plasmodium falciparum (isolate 3D7), also: biotinylated, position not given here)
T1 chain: KQPADGNPDPNANPNVDPN

B1: Biotinylated junctional peptide Pep21 (PfCSP peptide 21) (peptide)
peptide: NPDPNANPNVDPNAN
modifications: also: biotinylated, position not given here

Assays:
P3-10 = test: BLI
P3-3 = test: BLI
P3-19 = test: BLI
P3-45 = test: BLI
P3-7 = test: BLI
P3-9 = test: BLI
P3-17 = test: BLI
PfCSPm [1] = test: BLI; KD2, second site
[2] = target: T1, Biotinylated junctional peptide NPDP19; test: BLI
PfCSPm [3] = test: BLI; KD1
[4] = target: B1; test: BLI

| Binder | Kd (P3-10) | Kd (P3-3) | Kd (P3-19) | Kd (P3-45) | Kd (P3-7) | Kd (P3-9) | Kd (P3-17) | Kd (PfCSPm [1]) | Kd [2] | Kd (PfCSPm [3]) | Kd [4] |
| --- | --- | --- | --- | --- | --- | --- | --- | --- | --- | --- | --- |
| B1 | 20.4 nM | 15.4 nM | 14.6 nM | 19 nM | 24 nM | 21.8 nM | 17.8 nM | – | – | – | – |
| m43.151 Fab (Fab, V domains shown) VH: QVHLVQSGAEVKKPGASVKVSCKASGYTFTSYAIHWVRQAPGQRLEWMGWIKGGNGNTRYSQKFQDRVTITRDTSASTAYMELSSLRSEDTAVYYCALLTVITPDDAFDIWGQGTMVTVSS VL: not shown | – | – | – | – | – | – | – | 1700 nM | 2.2 nM | 38.3 nM | – |
| m42.127 Fab (Fab, V domains shown) VH: QVQLVQSGAEVKKPGASVKVSCKASGYTFTSYAIHWVRQAPGQRLEWMGWIKAGNGNTRYSQKFQDRVTITRDTSASTAYMELSSLRSEDTAVYYCALLTVITPDDTFDIWGQGTMVTVSS VL: not shown | – | – | – | – | – | – | – | 2000 nM | 2.2 nM | 31.6 nM | – |
| P3-21 Fab (m42.127 T99R_H P100Q_H) (Fab, V domains shown) VH: QVQLVQSGAEVKKPGASVKVSCKASGYTFTSYAIHWVRQAPGQRLEWMGWIKAGNGNTRYSQKFQDRVTITRDTSASTAYMELSSLRSEDTAVYYCALLTVIRQDDTFDIWGQGTMVTVSS VL: not shown | – | – | – | – | – | – | – | 1200 nM | 2 nM | 20.2 nM | 18 nM |
| P3-43 Fab (m43.151 P100K_H) (Fab, V domains shown) VH: QVHLVQSGAEVKKPGASVKVSCKASGYTFTSYAIHWVRQAPGQRLEWMGWIKGGNGNTRYSQKFQDRVTITRDTSASTAYMELSSLRSEDTAVYYCALLTVITKDDAFDIWGQGTMVTVSS VL: not shown | – | – | – | – | – | – | – | 1700 nM | 1.7 nM | 33.9 nM | – |
| P3-42 Fab (m43.151 A100cR_H) (Fab, V domains shown) VH: QVHLVQSGAEVKKPGASVKVSCKASGYTFTSYAIHWVRQAPGQRLEWMGWIKGGNGNTRYSQKFQDRVTITRDTSASTAYMELSSLRSEDTAVYYCALLTVITPDDRFDIWGQGTMVTVSS VL: not shown | – | – | – | – | – | – | – | 3400 nM | 2.6 nM | 13 nM | 14.5 nM |
